The test has as its target T1, mouse FAPα-His protein (mouse, UniProt P97321 26-761, limits assumed).
T1 construct: not shown: His tag
T1 sequence (looked up): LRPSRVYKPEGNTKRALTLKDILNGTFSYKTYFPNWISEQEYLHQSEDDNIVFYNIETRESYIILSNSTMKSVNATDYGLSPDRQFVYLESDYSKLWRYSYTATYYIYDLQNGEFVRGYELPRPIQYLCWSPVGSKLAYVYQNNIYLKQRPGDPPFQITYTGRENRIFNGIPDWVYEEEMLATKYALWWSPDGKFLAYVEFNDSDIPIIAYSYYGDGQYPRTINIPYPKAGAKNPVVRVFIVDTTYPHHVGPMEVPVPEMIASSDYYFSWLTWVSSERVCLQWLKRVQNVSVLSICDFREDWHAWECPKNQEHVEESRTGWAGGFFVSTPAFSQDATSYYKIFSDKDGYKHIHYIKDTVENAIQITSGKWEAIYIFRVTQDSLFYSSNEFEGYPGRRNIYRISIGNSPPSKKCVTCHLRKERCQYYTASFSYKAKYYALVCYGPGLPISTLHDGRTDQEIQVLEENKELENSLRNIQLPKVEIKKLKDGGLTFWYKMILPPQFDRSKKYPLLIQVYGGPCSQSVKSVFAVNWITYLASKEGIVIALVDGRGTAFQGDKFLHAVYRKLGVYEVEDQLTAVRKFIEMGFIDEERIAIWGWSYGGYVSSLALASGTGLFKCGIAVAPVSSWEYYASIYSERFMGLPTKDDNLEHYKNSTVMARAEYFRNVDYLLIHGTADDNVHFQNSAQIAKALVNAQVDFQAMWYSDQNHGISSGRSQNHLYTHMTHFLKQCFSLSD
Description: ELISA, coated mouse FAPα-His. The protocol: Briefly, microtiter plates were coated with mouse FAPα-His protein at 0.5 ug/ml in PBS, 100 μl/well at 4° C. overnight, then blocked with 150 μl/well of 1% BSA. Three-fold dilutions of tested antibodies starting from 1 μg/ml were added to each well and incubated for 1 hour at 37° C. The plates were washed with PBS/Tween and then incubated with Anti-Human IgG (H&L) (GOAT) Antibody Peroxidase Conjugated for 30 mins at 37° C. After washing, the plates were developed with TMB substrate and analyzed by spectrophotometer at OD 450 nm.
A general note: An ELISA detects its analyte on a solid surface through an enzyme-linked reagent.

B1: I37 (antibody, V domains shown)
VH: QLQLVESGGGLVQPGGSLRLSCAASGFTFSSYAMSWVRQAPGKGLEWVSAISGSGGSTYYADSVKGRFTISRDNSKNTLYLQMNSLRAEDTAVYYCARDKPWGGSFDYWGQGTLVTVSA
VL: DIQLTQSPSSLSASVGDRVTITCRASQGISSWLAWYQQKPGKAPKLLIYAASSLQSGVPSRFSGSGSGTDFTLTISSLQPEDFATYYCQQANSFPVTFGPGTKVDIK
notes: Tested as a mAb; also called FAP-I37
By EC50 is commonly meant the concentration needed to bring the measured effect to its halfway point. The molecule B1 gave an EC50 of 5.2 ng/mL.
